2 substances from patent US20120324602A1 can be followed below.

Test [1] deals with DNA-binding bromodomain-containing protein (AT1G20670) (Arabidopsis thaliana). The test is described as follows: TAP-MS, N-terminal GS tag.
Test [2] concerns the target electron carrier (AT1G32730) (Arabidopsis thaliana). Description: TAP-MS, N-terminal GS tag.
The target in test [3] is CRU1 (CRUCIFERINA) (Arabidopsis thaliana). The test is described as follows: TAP-MS, N-terminal GS tag.
Test [4] concerns the target SWI3B (Arabidopsis thaliana). The test is described as follows: TAP-MS, N-terminal GS tag.
Test [5] has as its target CKA2 (casein kinase II alpha chain 2) (Arabidopsis thaliana). The test is described as follows: TAP-MS, N-terminal GS tag.
Test [6] deals with expressed protein, similar to At3g03460 (AT5G17510) (Arabidopsis thaliana). The test is described as follows: TAP-MS, N-terminal GS tag.
The target of test [7] is RD21 (RESPONSIVE TO …ON 21) (Arabidopsis thaliana). Description: TAP-MS, N-terminal GS tag.
Test [8] has as its target CHR12 (Arabidopsis thaliana). Description: TAP-MS, N-terminal GS tag.
Test [9] addresses LFR (armadillo-repeat protein) (Arabidopsis thaliana). The test is described as follows: TAP-MS, N-terminal GS tag.
The target of test [10] is T1, SWIRM domain-containing protein (SWI3C) (Arabidopsis thaliana).
T1 sequence (Q9XI07 1-807, looked up): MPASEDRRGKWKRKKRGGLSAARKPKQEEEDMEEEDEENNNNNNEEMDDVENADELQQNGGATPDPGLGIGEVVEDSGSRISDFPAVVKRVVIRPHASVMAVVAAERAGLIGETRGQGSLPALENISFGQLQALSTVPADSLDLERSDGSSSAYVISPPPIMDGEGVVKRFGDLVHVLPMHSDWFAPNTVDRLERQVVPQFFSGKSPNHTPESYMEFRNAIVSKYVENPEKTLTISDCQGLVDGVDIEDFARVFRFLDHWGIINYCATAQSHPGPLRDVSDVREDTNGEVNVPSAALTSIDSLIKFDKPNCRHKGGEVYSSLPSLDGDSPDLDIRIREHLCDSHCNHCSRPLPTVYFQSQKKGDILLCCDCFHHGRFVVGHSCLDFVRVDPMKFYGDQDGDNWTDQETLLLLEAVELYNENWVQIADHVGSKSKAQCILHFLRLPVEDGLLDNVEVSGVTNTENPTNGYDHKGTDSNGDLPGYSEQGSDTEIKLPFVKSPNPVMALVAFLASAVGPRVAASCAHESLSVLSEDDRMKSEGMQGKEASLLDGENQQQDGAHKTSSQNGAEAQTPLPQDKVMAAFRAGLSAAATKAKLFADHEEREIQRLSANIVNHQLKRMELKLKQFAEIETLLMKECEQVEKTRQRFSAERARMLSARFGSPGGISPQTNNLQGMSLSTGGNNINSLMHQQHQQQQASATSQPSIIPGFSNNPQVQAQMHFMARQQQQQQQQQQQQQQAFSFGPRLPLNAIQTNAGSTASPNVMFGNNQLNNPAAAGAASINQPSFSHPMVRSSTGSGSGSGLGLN
The test is described as follows: TAP-MS, N-terminal GS tag.

Test [11] deals with SNF2 protein (BRM) (Arabidopsis thaliana). The test is described as follows: TAP-MS, N-terminal GS tag.
In test [12] the target is transcription factor (AT3G18380) (Arabidopsis thaliana). Description: TAP-MS, N-terminal GS tag.
Test [13] deals with CRU3 (CRUCIFERIN 3) (Arabidopsis thaliana). Description: TAP-MS, N-terminal GS tag.
The target in test [14] is DNA-binding bromodomain-containing protein, similar to At1g20670 (AT5G55040) (Arabidopsis thaliana). Description: TAP-MS, N-terminal GS tag.
Test [15] has as its target BSH (Arabidopsis thaliana). Description: TAP-MS, N-terminal GS tag.
Test [16] concerns the target unknown protein (AT1G06500) (Arabidopsis thaliana). Description: TAP-MS, N-terminal GS tag.
The target in test [17] is SWI3D (Arabidopsis thaliana). The test is described as follows: TAP-MS, N-terminal GS tag.
The target of test [18] is expressed protein, similar to At4g22320 (AT5G55210) (Arabidopsis thaliana). Description: TAP-MS, N-terminal GS tag.
The target in test [19] is SWI3A (Arabidopsis thaliana). The test is described as follows: TAP-MS, N-terminal GS tag.
Test [20] has as its target T2, actin-related protein 7 (ARP7) (Arabidopsis thaliana).
T2 sequence (Q8L4Y5 1-363, looked up): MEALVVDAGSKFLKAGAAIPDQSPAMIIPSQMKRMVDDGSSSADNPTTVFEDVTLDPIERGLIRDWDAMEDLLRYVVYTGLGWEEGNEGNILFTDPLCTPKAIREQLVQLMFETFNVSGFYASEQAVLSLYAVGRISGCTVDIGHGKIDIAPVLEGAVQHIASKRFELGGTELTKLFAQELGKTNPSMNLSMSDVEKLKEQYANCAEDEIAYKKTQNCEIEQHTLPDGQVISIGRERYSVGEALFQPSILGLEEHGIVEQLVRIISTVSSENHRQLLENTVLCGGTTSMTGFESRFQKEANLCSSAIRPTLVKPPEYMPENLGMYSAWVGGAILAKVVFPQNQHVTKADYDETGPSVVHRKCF
The test is described as follows: TAP-MS, N-terminal GS tag.

For test [21], the target named is unknown, similar to At5g55210 (AT4G22320) (Arabidopsis thaliana). Description: TAP-MS, N-terminal GS tag.
Test [22] has as its target T3, actin-related protein 4 (ARP4) (Arabidopsis thaliana).
T3 sequence (Q84M92 1-441, looked up): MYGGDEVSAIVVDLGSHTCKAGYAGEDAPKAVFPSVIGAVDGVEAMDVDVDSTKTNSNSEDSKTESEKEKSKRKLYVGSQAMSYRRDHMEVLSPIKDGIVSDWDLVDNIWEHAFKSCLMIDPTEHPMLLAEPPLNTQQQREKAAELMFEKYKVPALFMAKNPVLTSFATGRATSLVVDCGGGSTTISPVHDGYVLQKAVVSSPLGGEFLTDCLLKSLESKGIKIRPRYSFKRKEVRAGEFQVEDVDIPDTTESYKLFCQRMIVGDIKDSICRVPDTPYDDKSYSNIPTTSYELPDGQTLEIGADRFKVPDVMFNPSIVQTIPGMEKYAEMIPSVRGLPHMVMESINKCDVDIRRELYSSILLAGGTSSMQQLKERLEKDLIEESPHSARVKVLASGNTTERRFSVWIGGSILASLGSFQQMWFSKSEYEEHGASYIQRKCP
The test is described as follows: TAP-MS, N-terminal GS tag.

Test [23] deals with DNA-binding bromodomain-containing protein (AT1G20670) (Arabidopsis thaliana). The test is described as follows: TAP-MS, C-terminal GS tag.
Test [24] deals with electron carrier (AT1G32730) (Arabidopsis thaliana). The test is described as follows: TAP-MS, C-terminal GS tag.
The target of test [25] is SWI3B (Arabidopsis thaliana). The test is described as follows: TAP-MS, C-terminal GS tag.
Test [26] has as its target expressed protein, similar to At3g03460 (AT5G17510) (Arabidopsis thaliana). The test is described as follows: TAP-MS, C-terminal GS tag.
The target of test [27] is RD21 (RESPONSIVE TO …ON 21) (Arabidopsis thaliana). Description: TAP-MS, C-terminal GS tag.
The target in test [28] is LFR (armadillo-repeat protein) (Arabidopsis thaliana). Description: TAP-MS, C-terminal GS tag.
Test [29] concerns the target isocitrate dehydrogenase (AT5G03290) (Arabidopsis thaliana). The test is described as follows: TAP-MS, C-terminal GS tag.
Test [30] concerns the target T1, SWIRM domain-containing protein (SWI3C) (Arabidopsis thaliana). Description: TAP-MS, C-terminal GS tag.
Test [31] concerns the target SNF2 protein (BRM) (Arabidopsis thaliana). Description: TAP-MS, C-terminal GS tag.
For test [32], the target named is DNA-binding bromodomain-containing protein, similar to At1g20670 (AT5G55040) (Arabidopsis thaliana). The test is described as follows: TAP-MS, C-terminal GS tag.
Test [33] has as its target BSH (Arabidopsis thaliana). Description: TAP-MS, C-terminal GS tag.
Test [34] addresses unknown protein (AT1G06500) (Arabidopsis thaliana). Description: TAP-MS, C-terminal GS tag.
For test [35], the target named is SWI3D (Arabidopsis thaliana). Description: TAP-MS, C-terminal GS tag.
Test [36] deals with expressed protein, similar to At4g22320 (AT5G55210) (Arabidopsis thaliana). Description: TAP-MS, C-terminal GS tag.
For test [37], the target named is SWI3A (Arabidopsis thaliana). The test is described as follows: TAP-MS, C-terminal GS tag.
For test [38], the target named is DNA-binding bromodomain-containing protein (AT1G58025) (Arabidopsis thaliana). The test is described as follows: TAP-MS, C-terminal GS tag.
For test [39], the target named is T2, actin-related protein 7 (ARP7) (Arabidopsis thaliana). Description: TAP-MS, C-terminal GS tag.
For test [40], the target named is T3, actin-related protein 4 (ARP4) (Arabidopsis thaliana). The test is described as follows: TAP-MS, C-terminal GS tag.

For the substance GS-Swp73B, the N-GS (times co-purified) came out at 3 in test [1]; 2 in test [2]; 1 in [3]; 2 in test [4]; 1 in test [5]; 2 in [6]. Besides, the N-GS (times co-purified) was found to be 2 in test [7]; 1 in [8]; 2 in test [9]; 3 in test [10]; 2 in test [11]; 2 in test [12]. Besides, the N-GS (times co-purified) is 1 in [13]; 1 in [14]; 2 in [15]; 2 in test [16]; 3 in test [17]; 2 in test [18]. The N-GS (times co-purified) in [19] amounted to 3; in test [20] it was 2; in test [21], 1; in test [22] it was 2.
As to Swp73B-GS, the C-GS (times co-purified) in test [23], in test [24], in [25], in test [26], in test [27] and in [28] was 2 each time. For the same substance, the C-GS (times co-purified) in test [29] is 1; in test [30], 1; in [31] it was 1; in test [32] it was 1; in test [33] it was 2; in test [34], 1. Also, the C-GS (times co-purified) came out at 1 in [35]; 2 in [36]; 2 in [37]; 1 in test [38]; 2 in test [39]; 1 in test [40].
